Patent US20100003727

Target: T1, lipoamide-containing aminomethyl transferase (GcvH, H-protein) of C. jeikeium
T1 chain: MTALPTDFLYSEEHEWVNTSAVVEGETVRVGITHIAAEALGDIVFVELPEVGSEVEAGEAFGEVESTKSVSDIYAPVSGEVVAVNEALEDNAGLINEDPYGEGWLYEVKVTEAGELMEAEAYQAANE

B1: lipoyl transferase (LipB protein) of C. jeikeium (protein)
chain: MGFQQGSIRKANMGTTGTNDGATTPPANTSTPAVDIDVRDLGTVDYEDTWHLQANLAAQRAEEKIPDTILLLQHPPTYTAGKRTQDSDRPTNGLPVVDVDRGGRITWHGPGQLVAYPIIKLADPVDVVDYVRRLEQALIQTCEDLGLHGTGRVEGRSGVWLPAGVINGELKPARKIAAIGIRVTRGVTMHGVALNCDNTMEYYDHIVPCGLADAGVTTLTEELGRDVSVSDAYSSLAHNLVDALNGDLPVHS
growth of serine-auxotrophic C. glutamicum OM264C transformants (pOM620AF, pOM621AR) on minimal glycine plates without serine and without lipoic acid: both transformants grew, while OM264C(pCLIK) did not
